In series [1] the target is short pAgo (SPARSA Ago subunit);Sir2-APAZ N142A (Geobacter sulfurreducens;Geobacter …, UniProt Q74DF5;Q74DF6 1-473;1-587, |N142A). The experiment in a line: cryo-EM structure.
In series [2] the target is short pAgo (SPARSA Ago subunit);Sir2-APAZ (Geobacter sulfurreducens;Geobacter …, UniProt Q74DF5;Q74DF6 1-473;1-587, |). The experiment in a line: SEC.

B1: gRNA-target ssDNA (DNA:RNA)
RNA: AUUCCUGUUAGAGCUGUUAAC
DNA: AAGTTAACAGCTCTAACAGGAATAA
modifications: 5'-phosphate on guide RNA
As to B1, the binding result in series [1] and in series [2] was “binds” each time.

(Values after article PMC11452484.)
